Test results reported in patent US20240400703A1 (Genmab, published 2024).

Columns and labels:
[1] = molecular target: T1, human OX40 with mouse CRD4 (human with mouse CRD4, UniProt P43489 29-277); experiment: flow cytometry, transfected ExpiCHO-S cells, MFI at 5 µg/mL as % of IgG1-CD134-A4453
T1 construct: on ExpiCHO-S cells; also called OX40-CRD4mm; Shuffle 4
T1 chain: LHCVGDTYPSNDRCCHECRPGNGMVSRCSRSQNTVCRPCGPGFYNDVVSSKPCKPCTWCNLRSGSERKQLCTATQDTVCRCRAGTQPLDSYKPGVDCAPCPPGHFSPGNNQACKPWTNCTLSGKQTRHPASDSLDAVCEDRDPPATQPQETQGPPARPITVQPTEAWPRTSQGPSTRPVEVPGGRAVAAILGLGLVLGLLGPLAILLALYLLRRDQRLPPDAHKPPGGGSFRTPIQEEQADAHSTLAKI
Protocol: (§1) The four shuffle constructs, as well as wild-type human and mouse OX40 were transiently expressed on ExpiCHO-S cells using the ExpiFectamine™ CHO Transfection Kit (ThermoFisher, cat. no. A29131), according to the manufacturer's protocol. […] Next, cells were washed twice in FACS buffer 1, were resuspended in a 30 μL solution of viability marker ToPro-3 (Invitrogen, cat. no. T3605, diluted 1:10,000) in FACS buffer 1 supplemented with 2 mM EDTA, and were analyzed on an iQue Screener Plus (Intellicyt Corporation, USA). Data were analyzed using FlowJo software and visualized using GraphPad Prism.

[2] = molecular target: T2, human OX40 with mouse CRD2 (human with mouse CRD2, UniProt P43489 29-277); experiment: as above
T2 construct: on ExpiCHO-S cells; also called OX40-CRD2mm; Shuffle 2
T2 chain: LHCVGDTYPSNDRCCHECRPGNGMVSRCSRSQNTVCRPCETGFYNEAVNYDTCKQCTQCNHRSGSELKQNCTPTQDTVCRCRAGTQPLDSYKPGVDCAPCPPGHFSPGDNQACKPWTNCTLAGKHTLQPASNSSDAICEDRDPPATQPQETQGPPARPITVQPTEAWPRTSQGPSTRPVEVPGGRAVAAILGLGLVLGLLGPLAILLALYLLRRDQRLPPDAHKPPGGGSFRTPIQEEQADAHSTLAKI
Protocol: as §1

[3] = molecular target: T3, human OX40 with mouse CRD1 (human with mouse CRD1, UniProt P43489 29-277); experiment: as above
T3 construct: on ExpiCHO-S cells; also called OX40-CRD1mm; Shuffle 1
T3 chain: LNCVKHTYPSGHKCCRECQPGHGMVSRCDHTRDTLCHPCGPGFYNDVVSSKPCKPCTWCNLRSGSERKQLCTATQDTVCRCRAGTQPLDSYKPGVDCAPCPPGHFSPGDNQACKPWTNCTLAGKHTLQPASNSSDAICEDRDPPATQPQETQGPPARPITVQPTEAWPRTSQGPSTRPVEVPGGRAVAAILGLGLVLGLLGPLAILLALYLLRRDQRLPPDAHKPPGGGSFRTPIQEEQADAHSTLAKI
Protocol: as §1

[4] = molecular target: T4, human OX40 with mouse CRD3 (human with mouse CRD3, UniProt P43489 29-277); experiment: as above
T4 construct: on ExpiCHO-S cells; also called OX40-CRD3mm; Shuffle 3
T4 chain: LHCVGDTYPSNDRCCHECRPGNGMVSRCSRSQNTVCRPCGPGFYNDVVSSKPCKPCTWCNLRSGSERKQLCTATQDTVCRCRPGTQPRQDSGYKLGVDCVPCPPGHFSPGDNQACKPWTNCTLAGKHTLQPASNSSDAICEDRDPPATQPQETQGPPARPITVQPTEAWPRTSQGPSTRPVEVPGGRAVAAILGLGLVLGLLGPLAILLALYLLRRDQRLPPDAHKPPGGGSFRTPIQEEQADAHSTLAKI
Protocol: as §1

[5] = molecular target: T5, human OX40 expressed on cells (human, UniProt P43489 29-277); experiment: flow cytometry, loss of sOX40L (2 µg/mL) binding to activated human CD4+ T cells; competitor sOX40L
T5 construct: also called CD134; TNFRSF4
T5 sequence: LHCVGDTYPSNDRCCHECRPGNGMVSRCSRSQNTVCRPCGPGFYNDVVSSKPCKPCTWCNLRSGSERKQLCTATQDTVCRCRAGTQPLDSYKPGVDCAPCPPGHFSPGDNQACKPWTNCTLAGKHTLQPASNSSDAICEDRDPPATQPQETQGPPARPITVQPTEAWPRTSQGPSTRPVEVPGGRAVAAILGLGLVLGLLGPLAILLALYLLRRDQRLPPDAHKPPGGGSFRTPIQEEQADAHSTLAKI
Protocol: Stimulated PBMCs were pelleted, resuspended in FACS buffer 2 (DPBS with 2% heat-inactivated FBS [Sigma-Aldrich, cat. no. F7524] and 2 mM EDTA [Sigma-Aldrich, cat. no. 03690]), and seeded (100,000 cells/well) in round-bottom 96-well plates (VWR International GmbH, cat. no. 734-197). […] Next, cells were washed twice in FACS buffer, and incubated with 30 μL of the antibody panel described in Table 11 diluted in FACS buffer 2 containing 1:1,500 Fixable Viability Stain eFluor 780 at 4° C. for 20 min, protected from light. The cells were subsequently washed twice with 120-150 μL FACS buffer 2 and measured on a BD FACSCelesta flow cytometer using a BD High Throughput sampler and subsequent analysis was done using FlowJo software.

[6] = molecular target: T6, C1q (from normal human serum) (human, UniProt P02745 23-245; P02746 28-253; P02747 29-245); experiment: flow cytometry, C1q from 20 % normal human serum on antibody-opsonised activated CD4+ T cells, FITC anti-C1q
T6 construct: also called complement factor C1q
T6 sequence (P02745 23-245 limits assumed, chain 1 of 3): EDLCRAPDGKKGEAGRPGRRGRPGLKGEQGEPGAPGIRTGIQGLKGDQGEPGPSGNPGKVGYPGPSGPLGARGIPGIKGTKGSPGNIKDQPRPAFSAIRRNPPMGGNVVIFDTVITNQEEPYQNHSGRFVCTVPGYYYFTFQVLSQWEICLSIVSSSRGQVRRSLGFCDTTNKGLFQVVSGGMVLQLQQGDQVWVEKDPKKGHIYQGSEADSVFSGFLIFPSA
T6 sequence (P02746 28-253 limits assumed, chain 2 of 3): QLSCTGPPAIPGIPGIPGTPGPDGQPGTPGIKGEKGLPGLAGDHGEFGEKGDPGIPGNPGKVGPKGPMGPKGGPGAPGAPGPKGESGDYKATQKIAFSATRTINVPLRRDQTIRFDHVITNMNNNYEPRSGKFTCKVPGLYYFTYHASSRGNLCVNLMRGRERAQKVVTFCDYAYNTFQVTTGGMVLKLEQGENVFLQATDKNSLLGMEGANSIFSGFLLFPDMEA
T6 sequence (P02747 29-245 limits assumed, chain 3 of 3): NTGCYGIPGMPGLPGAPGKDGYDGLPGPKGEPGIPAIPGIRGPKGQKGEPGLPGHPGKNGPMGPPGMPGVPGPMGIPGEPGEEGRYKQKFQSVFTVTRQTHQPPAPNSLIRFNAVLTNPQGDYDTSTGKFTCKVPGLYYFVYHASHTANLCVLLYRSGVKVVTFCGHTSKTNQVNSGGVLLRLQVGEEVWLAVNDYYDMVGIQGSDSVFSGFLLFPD
Protocol: Next, cells were washed twice with cold FACS buffer, pelleted, and resuspended in 80 μL FACS buffer supplemented with viability marker TO-PRO™-3 Iodide (Invitrogen, cat. no. T3605; diluted 1:10,000). […] Binding curves were analyzed using nonlinear regression analysis (sigmoidal dose-response with variable slope) using GraphPad Prism software. Binding of OX40 antibodies to the activated T cells was assessed after the incubation step with serial dilutions of antibodies. […] Next, cells were washed twice with cold FACS buffer, pelleted, and resuspended in 80 μL FACS buffer supplemented with viability marker TO-PRO-3 Iodide (diluted 1:10,000). Antibody binding was analyzed by flow cytometry on a BD FACSCelesta Cell Analyzer. Binding curves were analyzed using nonlinear regression analysis (sigmoidal dose-response with variable slope) using GraphPad Prism software.

- binding result [1]: binds
- binding result [2]: binds
- binding result [3]: no binding (tested: 5 µg/mL)
- binding result [4]: binds
- IC50 [5]: 0.086 µg/mL
- binding result [6]: no binding (tested: 30 µg/mL antibody)
B1: IgG1-CD134-003-HC6LC2-P329R-E345R (antibody)
heavy: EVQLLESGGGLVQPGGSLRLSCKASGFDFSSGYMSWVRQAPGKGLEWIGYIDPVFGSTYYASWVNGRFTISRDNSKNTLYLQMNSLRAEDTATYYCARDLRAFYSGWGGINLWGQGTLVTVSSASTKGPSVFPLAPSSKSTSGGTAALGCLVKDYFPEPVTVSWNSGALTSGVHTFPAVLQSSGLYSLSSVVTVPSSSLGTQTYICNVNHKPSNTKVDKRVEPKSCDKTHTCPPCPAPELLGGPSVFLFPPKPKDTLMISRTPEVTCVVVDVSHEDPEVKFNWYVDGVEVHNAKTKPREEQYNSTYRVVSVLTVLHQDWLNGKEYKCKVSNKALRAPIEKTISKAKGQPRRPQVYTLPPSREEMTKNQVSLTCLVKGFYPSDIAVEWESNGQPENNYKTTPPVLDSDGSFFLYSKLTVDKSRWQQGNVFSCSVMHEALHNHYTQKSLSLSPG
light: AAVLTQSPSSLSASVGDRVTITCQSSQIVVNNNFLSWYQQKPGKAPKLLIYDASNLASGVPDRFSGSGSGTDFTFTISSLQPEDIATYYCLGGYDDDAENAFGGGTKVEIKRTVAAPSVFIFPPSDEQLKSGTASVVCLLNNFYPREAKVQWKVDNALQSGNSQESVTEQDSKDSTYSLSSTLTLSKADYEKHKVYACEVTHQGLSSPVTKSFNRGEC
notes: humanized; human IgG1 with P329R and E345R (Eu numbering), kappa; also called IgG1-CD134-003-HC6LC2-RR
